Data reported in the supplement of paper PMC10567573.
± gives the standard deviation.

Assay: protein stability index of a GFP-peptide fusion (GPS, HEK-293T) (PSI 1-6); higher = more stable
[1] = treatment: DMSO, c terminus: a fixed tail appended
[2] = treatment: MLN4924 1 uM, 8 h, c terminus: a fixed tail appended
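Note: 24-mer peptide tiles fused after GFP, lentivirally expressed, FACS-sorted into six equal bins by GFP/DsRed ratio, decoded by Illumina sequencing, PSI is the read-weighted mean bin number.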

Sequence	protein stability index [1]	protein stability index [2]	protein stability index (treatment: DMSO, c terminus: native)	protein stability index (treatment: MLN4924 1 uM, 8 h, c terminus: native)
LLSVDAFAAPSPATTASPAKVDSS [SNAP91]	4.86 ± 0.21	4.87 ± 0.07		
ELLQQLDLNNCKNNLEPILEGYIS [KRT71]	2.54 ± 0.1	2.62 ± 0.36		
DLSHIEGLSQAPQPLADEGPPGRS [SERTAD1]	5.11 ± 0.31	5.14 ± 0.36		
SSSHQKCPQLGGPEASGGLVQWI [PLEKHN1]			3.17 ± 0.38	3.47 ± 0.26
SFQMSEGSEAAVIPLDLGCTQVTQ [FAM189A2]	4.56 ± 0.17	4.43 ± 0.31		
LTLCKSDLESQVESLREELICLKK [KRT34]	2.89 ± 0.87	2.65 ± 0.27		
ADAISENYRIMSYFKEAELKDLLL [WEE1]	2.61 ± 0.22	2.72 ± 0.54		
PTFRFLTKMWHPNIYENGDVCISI [UBE2R2]	3.01 ± 0.68	3.15 ± 0.71		
LGNEYPKLHYPELYVLKGGYKEFF [CDC25A]	2.02 ± 0.23	2.01 ± 0.39		
QPVKTAGEITQHNVTELLRDVAAW [DNAAF3]	3.73 ± 0.32	3.75 ± 0.27		
SREITTLANNQCMATESVDHELGR [EHMT1]	4.8 ± 0.28	4.84 ± 0.26		
PAWGHCFYRLYQDLETHRLPCTSR [SCNN1D]	2.32 ± 0.12	2.62 ± 0.32		
FKHPSIRNPVSLVVTRLVILGSGE [ADAMTS4]		3.03 ± 0.97		
PFSSHTYSQASELPTDAVDCMSRE [FBXO34]	5.25 ± 0.29	5.01 ± 0.075		
ISGVTKAISSPTVSRLTDTTKFTG [TPPP]	3.89 ± 0.27	3.85 ± 0.17		
TSRRPSGTGTGPEDGRPSLGSPYG [PDLIM4]	4.67 ± 0.21	4.67 ± 0.2		
KHLLNLGVEIDEINVYGNTALHIA [ANKRD44]	2.19 ± 0.34	2.07 ± 0.48		
NSIKNEKLEWAIDEDELRKSLSEL [PSD2]	4.81 ± 0.15	4.72 ± 0.079		
VGEPEFHYIAGAHGNEVLGRELLL [CPXM2]	2.88 ± 0.62	3.25 ± 0.2		
SDGFRDCKKGDPKHGKRKRGRPRK [ELF3]	5.18 ± 0.35	5.22 ± 0.15		
TEEELRRIQTQKEQAKENENGELQ [ZC2HC1C]	5.68 ± 0.23	5.54 ± 0.14		
VPQPARMPYISDKHPRQTLEVINL [KLHL20]	2.88 ± 0.2	3.2 ± 0.31		

Sequence	protein stability index [1]	protein stability index [2]	protein stability index (treatment: DMSO, c terminus: native)	protein stability index (treatment: MLN4924 1 uM, 8 h, c terminus: native)
EMAFNTRCKEENTIILQQLLPLRT [NLN]	2.54 ± 0.55	2.5 ± 0.32		
TMTNYDEAAMAIASLNGYRLGERV [ELAVL3]	3 ± 0.35	3.17 ± 0.31		
QALQAGPEGARRGLGVLRALGSRG [FANCE]	4.38 ± 0.33	4.31 ± 0.26		
TIYCSLQLQALNRRFQQTQYLALP [DLX1]	2.53 ± 0.48	2.42 ± 0.62		
PVTRNERHSYQVYRQPIPVQELVL [NET1]	2.79 ± 0.23	2.88 ± 0.23		
VAITVEVKQEEDIKPPPPLVLNSQ [RAD54B]	3 ± 0.26	2.98 ± 0.24		
MYTPAYGDFDFDEVKFPNASDMFR [MYORG]	3.1 ± 0.3	3.16 ± 0.26		
RFKDKSSEEAVREVHRLIEGKAPI [TPPP]	4.6 ± 0.15	4.58 ± 0.18		
TMEDTLMTVKQYEAARLEYDAYRT [ARFIP2]	3.88 ± 0.27	3.74 ± 0.3		
LPCDLPKVVSRAENLSVPVIGALL [LPCAT4]	2.29 ± 0.37	2.27 ± 0.31		
DTILKYLKDHFSHLLGIPHSVLQI [IQUB]	2.61 ± 0.43	2.63 ± 0.67		
MWDSKKIGLRQHHCRKCGKAVCGK [WDFY2]	3.31 ± 0.15	3.58 ± 0.72		
VRTTRGKRKRVDVEESEASSSVSI [LMNB1]	5.13 ± 0.17	5.09 ± 0.44		
ALARNLLVDGETGESFPAQVPSGE [NFE2L1]	4.79 ± 0.45	4.5 ± 0.61		
SEGKVLTLAALLLNRSESDIRYLL [FEM1B]	2.43 ± 0.56	2.38 ± 0.24		
PPKASEQETAKEEDGSVELESQVQ [C18orf25]	5.42 ± 0.17	5.67 ± 0.081		
PNAGEQPGQVAGADFESEDEGEEF [EID1]	5.59 ± 0.28	5.46 ± 0.33		
AVNNGDFEAYAKICDPGLTSFEPE [CAMK2B]	4.35 ± 0.27	4.38 ± 0.14		
ELNFISVFWPQLPNGLEAAYEFAD [MMP1]	2.45 ± 0.47	2.15 ± 0.59		
KMTLTQVSTWFANARRRLKKENKM [IRX6]	2.83 ± 0.29	3.02 ± 0.23		
YLPKNTHPFLYLSLEISPQNVDVN [MLH1]	3.23 ± 1.1	2.09 ± 0.3		
CSSRPLQKGSHPMCKEHEDEKINI [TRIM63]	4.81 ± 0.093	4.84 ± 0.24		

Sequence	protein stability index [1]	protein stability index [2]	protein stability index (treatment: DMSO, c terminus: native)	protein stability index (treatment: MLN4924 1 uM, 8 h, c terminus: native)
TWLTTPKSTWPRYSKPGLSMRLLE [TCF25]	2.41 ± 0.61	2.29 ± 0.31		
SGKRLSGVSSVDSAFSSRGSLSLS [RIPK4]	3.47 ± 0.62	3.57 ± 0.41		
YSRGYRNRRSSRETREYAPPSRGH [RBMY1A1]	4.38 ± 0.27	4.76 ± 0.23		
LFEEEDHVKKLQQKVATLEKRNRQ [CCDC3]	4.46 ± 0.29	4.68 ± 0.23		
GELLNMIVAVIDSAQLQELVCHVM [INTS3]	2.92 ± 0.59	2.6 ± 0.72		
GVTAIIFCVALSDYDLVLAEDEEM [GNAI1]	3.86 ± 0.17	2.75 ± 0.9		
GGSGGGSHHHHQSRGACTSHDPQS [KCNA4]	5.08 ± 0.24	5.12 ± 0.33		
LLTGETEADPEMIKRAEDYGPVEV [CLPTM1]	5.02 ± 0.3	5.14 ± 0.11		
FEEYALVNQDILENKESWDKILAL [PRIM1]	3.3 ± 0.31	3.6 ± 0.45		
VRLQSIHTMRKISNNITLREDQLD [INTS4]	3.2 ± 0.055	3.3 ± 0.36		
AWQYGPCTGITRLQRWCRAKHMGL [POLD4]	2.15 ± 0.12	2.3 ± 0.42		
TLRTLTGQDTMLKAMFSGRVEVLT [KCTD13]	2.44 ± 0.22	2.37 ± 0.29		
DEEQQVLLSRLEEEEQDILQRLRE [TRIM39]	5.27 ± 0.098	5.28 ± 0.33		
NVYRKRRKYFADLAMNYKHGDPIP [TPH1]	2.75 ± 0.13	2.9 ± 0.26		
KLVKVCNGHDCWSLISLSNNTGKN [TENT5D]	2.33 ± 0.24	2.34 ± 0.43		
CGGSGGGGGGGGGGGGCSSGSSYC [LURAP1L]	3.28 ± 0.46	3.22 ± 0.22		
CNVDLLKIIQLGLTFMNEQGEYPP [CNOT7]	2.96 ± 1.3	2.48 ± 0.18		
KEHYLTFEKSRYETYIHLLAMKIK [PSD2]	3.28 ± 0.76	2.73 ± 0.94		
TKPTQGASSASEPQGLFVEALSVP [CLPTM1]	4.13 ± 0.097	4.29 ± 0.19		
TAFAPKMIVDLLSEKKTISFQGCM [OR4A15]	2.08 ± 0.13	2.26 ± 0.42		
YDVAMNRAKDLVELDPEVEGTKPS [GOLPH3L]	5.54 ± 0.2	5.603 ± 0.052		
